Results from paper PMC4465971, “MIST, a Novel Approach to Reveal Hidden Substrate Specificity in Aminoacyl-tRNA Synthetases”.

How the values were obtained:
[1] = target: T1, yArgRS (yeast cytoplasmic arginyl-tRNA synthetase) (Saccharomyces cerevisiae, UniProt Q05506 1-607); assay: EMSA + tRNA microarray (MIST); total tRNA competition, 10 mM Mg2+; highest among tRNA Arg; 25 mM Tris-HCl pH 7.5, 75 mM KCl, 10 mM MgCl2, 25% glycerol; 15 min at room temperature (Fig 1 legend: on ice); native 6% PAGE at room temperature; conditions: protein: recombinant; tags: none (tag-free native recombinant, E. coli TB1, pTrc99B); label: 5'-32P; tRNA cloverleaf
T1 sequence: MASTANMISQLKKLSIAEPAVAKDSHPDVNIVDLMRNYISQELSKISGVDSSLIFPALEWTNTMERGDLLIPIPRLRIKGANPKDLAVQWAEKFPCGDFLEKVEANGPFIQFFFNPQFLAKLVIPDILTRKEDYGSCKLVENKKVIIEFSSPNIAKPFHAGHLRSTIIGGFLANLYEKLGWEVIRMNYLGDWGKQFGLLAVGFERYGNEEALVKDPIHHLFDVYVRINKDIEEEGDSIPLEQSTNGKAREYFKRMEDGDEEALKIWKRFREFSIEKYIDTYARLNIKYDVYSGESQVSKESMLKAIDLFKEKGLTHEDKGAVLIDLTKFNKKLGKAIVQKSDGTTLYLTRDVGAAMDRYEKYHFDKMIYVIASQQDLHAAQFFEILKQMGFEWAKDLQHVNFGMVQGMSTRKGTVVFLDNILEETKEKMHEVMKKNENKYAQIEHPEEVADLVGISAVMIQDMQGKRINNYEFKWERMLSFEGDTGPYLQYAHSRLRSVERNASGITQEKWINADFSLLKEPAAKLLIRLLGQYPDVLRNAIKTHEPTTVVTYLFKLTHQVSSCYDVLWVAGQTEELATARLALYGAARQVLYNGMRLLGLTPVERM

[2] = target: T1, yArgRS (yeast cytoplasmic arginyl-tRNA …); assay: EMSA + tRNA microarray (MIST); total tRNA competition, 10 mM Mg2+; 25 mM Tris-HCl pH 7.5, 75 mM KCl, 10 mM MgCl2, 25% glycerol; 15 min at room temperature (Fig 1 legend: on ice); native 6% PAGE at room temperature; conditions: protein: recombinant; tags: none (tag-free native recombinant, E. coli TB1, pTrc99B); label: 5'-32P; tRNA cloverleaf
[3] = target: T1, yArgRS (yeast cytoplasmic arginyl-tRNA …); assay: EMSA; 0.5 uM yArgRS, single tRNA, 10 mM Mg2+; 25 mM Tris-HCl pH 7.5, 75 mM KCl, 10 mM MgCl2, 25% glycerol; 15 min at room temperature (Fig 1 legend: on ice); native 6% PAGE at room temperature; conditions: protein: recombinant, tags: none (tag-free native recombinant, E. coli TB1, pTrc99B), label: 32P, tRNA cloverleaf
[4] = target: T1, yArgRS (yeast cytoplasmic arginyl-tRNA …); assay: EMSA + tRNA microarray (MIST); 0.8 uM yArgRS, total tRNA competition, 10 mM Mg2+; 25 mM Tris-HCl pH 7.5, 75 mM KCl, 10 mM MgCl2, 25% glycerol; 15 min at room temperature (Fig 1 legend: on ice); native 6% PAGE at room temperature; conditions: protein: recombinant, tags: none (tag-free native recombinant, E. coli TB1, pTrc99B), label: 5'-32P, tRNA cloverleaf
[5] = target: T1, yArgRS (yeast cytoplasmic arginyl-tRNA …); assay: EMSA + tRNA microarray (MIST); total tRNA competition, 10 mM Mg2+; strong affinity; 25 mM Tris-HCl pH 7.5, 75 mM KCl, 10 mM MgCl2, 25% glycerol; 15 min at room temperature (Fig 1 legend: on ice); native 6% PAGE at room temperature; conditions: protein: recombinant; tags: none (tag-free native recombinant, E. coli TB1, pTrc99B); label: 5'-32P; tRNA cloverleaf, long variable loop (class 2)

B1: native tRNA Arg (UCU) (structured_RNA)
RNA: GCUCGCGUGGCGUAAUGGCAACGCGUCUGACUUCUAAUCAGAAGAUUAUGGGUUCGACCCCCAUCGUGAGUG
modifications: native post-transcriptional modifications (not specified)
**Q.** Does B1 bind [1]?
**A.** Result: binds

B2: native tRNA Gly (GCC) (structured_RNA)
RNA: GCGCAAGUGGUUUAGUGGUAAAAUCCAACGUUGCCAUCGUUGGGCCCCCGGUUCGAUUCCGGGCUUGCGCA
modifications: native post-transcriptional modifications (not specified)
**Q.** B2 was tested. Which binding signal [2] did it give?
**A.** Its binding signal is 4.5 fold lower apparent affinity than tRNA Leu (GAG).

B3: tRNA Leu (GAG) transcript (structured_RNA)
RNA: GGUACUCUGGCCGAGUGGUCUAAGGCGUCAGGUCGAGGUCCUGAUCUCUUCGGAGGCGCGGGUUCAAACCCCGCGGGUAUCA
modifications: none (unmodified transcript)
**Q.** For B3, which binding signal ([3]; long variable loop (class 2)) is on record?
**A.** The binding signal was > 60 % complexed.

B4: native tRNA Leu (GAG) (structured_RNA)
RNA: B3 RNA
modifications: native post-transcriptional modifications (not specified)
**Q.** For B4, which binding signal ([4]; long variable loop (class 2)) is on record?
**A.** The binding signal was > 3 fold enrichment vs input.

B5: native tRNA Leu (UAA) (structured_RNA)
RNA: GGAGGGUUGGCCGAGUGGUCUAAGGCGGCAGACUUAAGAUCUGUUGGACGGUUGUCCGCGCGAGUUCGAACCUCGCAUCCUUCA
modifications: native post-transcriptional modifications (not specified)
**Q.** Does B5 bind [5]?
**A.** Result: binds

B6: native tRNA Gly (TCC) (structured_RNA)
RNA: GGGCGGUUAGUGUAGUGGUUAUCAUCCCACCCUUCCAAGGUGGGGACACGGGUUCGAUUCUCGUACCGCUCA
modifications: native post-transcriptional modifications (not specified)
**Q.** For B6, which binding signal [4] is on record?
**A.** Its binding signal is < 0.3 fold enrichment vs input.

B7: tRNA Pro (AGG) transcript (structured_RNA)
RNA: GGGCGUGUGGUCUAGAGGUAUGAUUCUCGCUUAGGGUGCGGGAGGUCCCGGGUUCGAGUCCCGGCUCGCCCC
modifications: none (unmodified transcript)
**Q.** For B7, which binding signal [3] is on record?
**A.** The binding signal was 19 % complexed.

B8: native tRNA Pro (AGG) (structured_RNA)
RNA: B7 RNA
modifications: native post-transcriptional modifications (not specified)
**Q.** For B8, which binding signal [4] is on record?
**A.** The binding signal was < 0.3 fold enrichment vs input.

B9: tRNA Asp (GUC) transcript (structured_RNA)
RNA: UCCGUGAUAGUUUAAUGGUCAGAAUGGGCGCUUGUCGCGUGCCAGAUCGGGGUUCAAUUCCCCGUCGCGGAG
modifications: none (unmodified transcript)
**Q.** B9 was tested. Which binding signal [3] did it give?
**A.** The binding signal was 35 % complexed.

B10: native tRNA Ile (GAT) (structured_RNA)
RNA: GAAACUAUAAUUCAAUUGGUUAGAAUAGUAUUUUGAUAAGGUACAAAUAUAGGUUCAAUCCCUGUUAGUUUCA
modifications: native post-transcriptional modifications (not specified)
**Q.** Which binding signal [4] does the source give for B10 here?
**A.** Its binding signal is < 0.3 fold enrichment vs input.

B11: native tRNA Arg (CCU) (structured_RNA)
RNA: GUUCCGUUGGCGUAAUGGUAACGCGUCUCCCUCCUAAGGAGAAGACUGCGGGUUCGAGUCCCGUACGGAACG
modifications: native post-transcriptional modifications (not specified)
**Q.** With B11 as the binder, how does the binding signal [4] read?
**A.** Its binding signal is < 0.3 fold enrichment vs input.

B12: native tRNA Ser (AGA) (structured_RNA)
RNA: GGCAACUUGGCCGAGUGGUUAAGGCGAAAGAUUAGAAAUCUUUUGGGCUUUGCCCGCGCAGGUUCGAGUCCUGCAGUUGUCG
modifications: native post-transcriptional modifications (not specified)
**Q.** With B12 as the binder, how does the binding signal ([4]; long variable loop (class 2)) read?
**A.** Its binding signal is > 3 fold enrichment vs input.
